Measured values as given in article doi:10.1101/2020.10.08.20209114 (medRxiv, 2020).

B1: monoclonal antibody 7F3 (antibody, V domains shown)
VH: EVQLVESGGGLVKPGRSLRLSCTASGFTFGDYAMSWFRQAPGKGLEWVGFIRSKAYGGTTEYAASVKGRFTISRDDSKSIAYLQMNSLKTEDTAVYYCTRDRYARYDILTGLSPAGADYFYYAMDVWGQGTTVTVSS
VL: EIVLTQSPATLSLSPGERATLSCRASQSVSSYLAWYQQKPGQAPRLLIYDASNRATGIPARFSGSGSGTDFTLTISSLEPEDFAVYYCQQRSNWPQYTFGQGTKLEIK
B2: monoclonal antibody 4L12 (antibody, V domains shown)
VH: EVQLVESGGGLVQPGGSLRLSCAASGITVSSNYMNWVRQAPGRGLEWVSLLYSGGSTYYADSVKGRFTISRDNSKNTLYLQMNSLRAEDTAVYYCARDLITYGMDVWGQGTTVTVSS
VL: AIQLTQSPSSLSASVGDRVTITCRASQGISSYLAWYQQKPGKAPKLLIYAASTLQSGVPSRFSGSGSGTDFTLTISSLQPEDFATYYCQQLNSYPPLTFGGGTKVEIK

Target: SARS-CoV-2 RBD protein (SARS-CoV-2 (Wuhan-Hu-1, NC_045512), UniProt P0DTC2)
Assay: BLI

Binder | Kd
B1 | 0.69 ± 0.03 nM
B2 | 1.49 ± 0.06 nM
